Consider 1 molecule from paper doi:10.1101/2024.06.13.598862 (bioRxiv, 2024).

The target of this test is full-length human tau, null cysteine variant (C291S, C322S) (human, UniProt P10636-8 1-441, C291S | C322S). As to the kind of experiment: co-phase separation.

B1: Ydj1, yeast Hsp40 (natural protein, UniProt P25491 1-409, looked up)
chain: MVKETKFYDILGVPVTATDVEIKKAYRKCALKYHPDKNPSEEAAEKFKEASAAYEILSDPEKRDIYDQFGEDGLSGAGGAGGFPGGGFGFGDDIFSQFFGAGGAQRPRGPQRGKDIKHEISASLEELYKGRTAKLALNKQILCKECEGRGGKKGAVKKCTSCNGQGIKFVTRQMGPMIQRFQTECDVCHGTGDIIDPKDRCKSCNGKKVENERKILEVHVEPGMKDGQRIVFKGEADQAPDVIPGDVVFIVSERPHKSFKRDGDDLVYEAEIDLLTAIAGGEFALEHVSGDWLKVGIVPGEVIAPGMRKVIEGKGMPIPKYGGYGNLIIKFTIKFPENHFTSEENLKKLEEILPPRIVPAIPKKATVDECVLADFDPAKYNRTRASRGGANYDSDEEEQGGEGVQCASQ
Consider B1, for which the binding result was “binds”.
